Measured values: publication PMC2779847

What was measured:
[1] = molecular target: MsDps2 protein (second Dps homologue of Mycobacterium smegmatis) (Mycobacterium smegmatis); experiment: negative-stain transmission electron microscopy; MsDps2 in 20 mM Tris, 200 mM NaCl on copper grids, stained with uranyl acetate, 80 kV, 50,000x
[2] = molecular target: MsDps2 protein (second Dps homologue of Mycobacterium smegmatis) (Mycobacterium smegmatis); experiment: native gel or EMSA; 10% native gel; BSA and ferritin as markers; oligomeric state of the purified protein
[3] = molecular target: MsDps2ΔN15 (MsDps2 lacking 15 amino acids from the N-terminus) (Mycobacterium smegmatis); experiment: as above

| stoichiometry N [1] | stoichiometry N [2] | stoichiometry N [3] | Substance |
| --- | --- | --- | --- |
| 12 | 12 | – | MsDps2 protein (second Dps homologue of Mycobacterium smegmatis) (natural protein) |
| – | – | 12 | MsDps2ΔN15 (MsDps2 lacking 15 amino acids from the N-terminus) (domain or fragment) |
